9 molecules from patent US20260070978A1 (LENTIGEN TECHNOLOGY, published 2026) can be followed below.

By EC50 is commonly meant the midpoint of the concentration-response curve.

The target in one assay is T1, recombinant human CD19 (human, UniProt P15391 20-291, limits assumed, fluorescent label, kind and site not stated).
T1 construct: soluble labeled antigen titrated on yeast; sorting steps used CD19-Fc, so the labeled antigen may be the Fc fusion; also called labeled CD19; fluorescently tagged antigen
T1 sequence (looked up): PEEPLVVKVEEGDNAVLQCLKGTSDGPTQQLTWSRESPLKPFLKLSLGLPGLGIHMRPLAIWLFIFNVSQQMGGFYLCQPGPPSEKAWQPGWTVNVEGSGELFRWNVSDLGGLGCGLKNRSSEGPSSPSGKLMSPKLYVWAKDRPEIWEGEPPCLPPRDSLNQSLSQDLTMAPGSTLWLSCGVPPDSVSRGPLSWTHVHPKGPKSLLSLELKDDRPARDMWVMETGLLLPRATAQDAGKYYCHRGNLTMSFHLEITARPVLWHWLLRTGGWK
The assay is described as follows: flow cytometry of yeast-displayed scFv with decreasing amounts of labeled CD19. As for the experimental part:
To increase the affinity of m19217, a yeast-display m19217 mutant scFv library was created by using error-prone PCR to create random point mutations in scFv gene sequences. After electroporation, the resulting mutant library was then grown overnight at 30° C. for 16 hours in SDCAA medium and then switched into SGCAA medium at 30° C. for another 16 hours. The mutant library was then sorted through MACS (immunomagentic column, Miltenyi Biotec) with CD19-Fc as the capture antigen to downsize the library and to increase the population of mutants that could bind to CD19-Fc. The strongest binders were then selected by double staining the pools with Anti-c-Myc-Alexa 488 and CD19-Fc/Anti-Hu-Fc and selecting for the binders that had the highest binding affinities as well as c-Myc expression levels. This process was then repeated two more times, until flow cytometry of yeast particles with fluorescently tagged antigen yielded average binding affinities of the mutant pools that were increased over the starting construct. Binding affinities were estimated by flow cytometry of yeast pools using decreasing amounts of labeled CD19.
(In general: A flow cytometer gives signals particle by particle.)

The next assay concerns the target T2, recombinant human CD22 (human, UniProt P20273 20-687, limits assumed, fluorescent label, kind and site not stated).
T2 construct: soluble labeled antigen titrated on yeast; sorting steps used CD22-Fc, so the labeled antigen may be the Fc fusion; also called labeled CD22; fluorescently tagged antigen
T2 sequence (looked up): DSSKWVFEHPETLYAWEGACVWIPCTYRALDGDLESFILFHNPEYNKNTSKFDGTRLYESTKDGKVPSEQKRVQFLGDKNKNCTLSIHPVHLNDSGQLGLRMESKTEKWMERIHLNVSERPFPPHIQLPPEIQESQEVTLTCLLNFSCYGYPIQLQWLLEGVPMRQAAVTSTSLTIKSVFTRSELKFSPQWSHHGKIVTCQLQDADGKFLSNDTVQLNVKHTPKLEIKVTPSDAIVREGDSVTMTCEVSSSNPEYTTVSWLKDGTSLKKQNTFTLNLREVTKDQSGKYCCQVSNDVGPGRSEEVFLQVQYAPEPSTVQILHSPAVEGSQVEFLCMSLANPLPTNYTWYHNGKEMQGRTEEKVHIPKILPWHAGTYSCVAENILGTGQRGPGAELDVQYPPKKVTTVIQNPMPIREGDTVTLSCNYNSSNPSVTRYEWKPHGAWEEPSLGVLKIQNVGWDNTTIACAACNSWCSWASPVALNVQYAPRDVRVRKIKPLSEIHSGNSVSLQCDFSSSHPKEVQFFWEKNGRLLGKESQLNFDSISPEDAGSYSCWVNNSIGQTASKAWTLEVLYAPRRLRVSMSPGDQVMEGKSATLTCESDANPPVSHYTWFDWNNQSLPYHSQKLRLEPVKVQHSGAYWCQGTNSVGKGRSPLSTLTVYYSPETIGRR
The assay is described as follows: flow cytometry of yeast-displayed scFv with decreasing amounts of labeled CD22.

B1: human anti-CD19 ScFv binder M19217 (scFv)
chain: EVQLVQSGAEVKKPGASVKVSCKASGYTFTSYYMHWVRQAPGQGLEWMGIINPSGGSTSYAQKFQGRVTMTRDTSTSTVYMELSSLRSEDTAVYYCARSDRGITATDAFDIWGQGTMVTVSSGGGGSGGGGSGGGGSQSVLTQPPSVSVAPGQTAKITCGGSDIGNKNVHWYQQKPGQAPVLVVYDDYDRPSGIPERFSGSNSGDAATLTISTVEVGDEADYFCQVWDSSGDPYWVFGGGTQLTVLG
Regarding B1, in the assay with recombinant human CD19, the 50% effective concentration (EC50) is 0.5 µg/mL.

B2: human anti-CD19 ScFv binder M19217-29 (scFv)
chain: EVQLVQSGAEVKKPGASVKVSCKASGYTFTSYYMHWVRQAPGQGLEWMGMINPSGGSTSYAQKFQGRVTMTRDTSTSTVYMELSSLRSEDTAVYYCARSDRGITATDAFDIWGQGTMVTVSSGGGGSGGGGSGGGGSQSVLTQPPSVSVAPGQTAKITCGGSDIGNKNAHWYQQKPGQAPVLVVYDDYDRPSGISERFSGSNSGDAATLTISTVEVGDEADYFCQVWDGSGDPFWVFGGGTQLTVLG
Turning to B2, in the assay with recombinant human CD19, the 50% effective concentration (EC50) is less than 0.01 µg/mL.

B3: human anti-CD19 ScFv binder M19217-7 (scFv)
chain: EVQLVQSGAEVNKPGASVKVSCKASGYTFTSYYMHWVRQAPGQGLEWMGMINPSGGSTSYAQKFQGRVTMTRDTSTSTVYMELSSLRSEDTAVYYCARSDRGITSTDAFDIWGQGTMVTVSSGGGGSGGGGSGGGGSQSVLTQPPSVSLAPGQTAKITCGGSDIGNKNVHWYQQKPGQAPVLVVYDDYNRPSGIPERFSGSNSGDSATLTISTVEVGDEADYFCQVWDGSGDPYWVFGGGTQLTVLG
For B3, the concentration for a half-maximal effect (EC50) with recombinant human CD19 is less than 0.01 µg/mL.

B4: human anti-CD19 ScFv binder M19217-2 (scFv)
chain: EVQLVQSGAEVKKPGASVKVSCKASGYTFTSYYMHWVRQAPGQGFEWMGLINPSGSSTSYAQKFQGRVTMTRDTSTSTVYMELSNLRSEDTAVYYCARSDRGITATDAFDIWGQGTMVTVSSGGGGSGGGGSGGGGSQSVLTQPPSVPVAPGQTAKIICGGSDIGNKNVHWYQQKPGQAPVLVVYDDYDRPSGIPERFSGSNSGDAATLTISTVEVGDEADYFCQVWDGSGDPYWVFGGGTQLTVLG
As to B4, the half-maximal effective concentration (EC50) with recombinant human CD19 is less than 0.01 µg/mL.

B5: human anti-CD19 ScFv binder M19217-23 (scFv)
chain: EVQLVQSGAEVKKPGASVKVSCKASGYTFTGYYMHWVRQAPGQGLEWIGLINPSGGSTSYEQKFQGRVAMTRDTSTSTVYMELSSLRSEDTAVYYCARSDRGITATDAFDIWGQGTMVTVSSGGGGSGGGGSGGGGSQSVLTQPPSVSVAPGQTAKITCGGSDIGDKNVHWYQQKPGQAPVLVVYDDYDRPSGIPERFSGSNSGDAATLTISTVEVGDEADYFCQVWDGIGDPYWVFGGGTQLTVLG
Take B5: the EC50 with recombinant human CD19 was less than 0.01 µg/mL.

B6: human anti-CD19 ScFv binder M19217-38 (scFv)
chain: EVQLVQSGAEVKRPGASVKVSCKASGYTFTSYYMHWVRQAPGRGLEWMGLINPSGGSTSYAQEFQGRVTMTRDMSTSTVYMELSSLRSEDTAVYYCARSDRGISATDAFDIWGQGTMVTVSSGGGGSGGGGSGGGGSQSVLTQPPSVSVAPGQMAKITCGGSDIGNKNVHWYQQKPGQAPVLVVYDDYNRPSGIPERFSGSNSGDAATLTISTVEVGDEADYFCQVWDGSGDPYWVFGGGTQLTDLG
For the molecule B6, the concentration giving a half-maximal response (EC50) with recombinant human CD19 was less than 0.01 µg/mL.

B7: human anti-CD19 ScFv binder M19217-40 (scFv)
chain: EVQLVQSGAEVKRPGASVKVSCKASGYTFTSYYMHWVRQAPGQGLVWMGLINPSGGSTSYAQKFQGRVTMTRDTSTSTVYMELSSLRSEDTAVYYCARSDRGITATDAFDIWGQGTMVTVSSGGGGSGGGGSGGGGSQSVLTQPPSVSVAPGQTAKTTCGGSDIGNKNVHWYQQKPGQAPVLVVYDDYDRPSGIPERFSGSNSGDAATLTISTVEVGDEADYVCQVWDGSGDPYWVFGGGTQLTVLG
Turning to B7, the EC50 with recombinant human CD19 was less than 0.01 µg/mL.

B8: human anti-CD19 ScFv binder M19217-1 (scFv)
scFv: EVQLVQSGAEVKKPGASVKVSCKASGYTFTSYYMHWVRQAPGQGLEWMGLINPSGGSTSYAQKFQGRVTMTRDTSTSTVYMELSSLRSEDTAVYYCARSDRGITATDAFDIWGQGTMVTVSSGGGGSGGGGSGGGGSQSVLTQPPSVSVAPGRMAKITCGGSDIGNKNVHWYQQKPGQAPVLVVYDDYDRPSGIPERFSGSNSGDAATLTISTVEVGDEADYFCQVWDGSGDPYWMFGGGTQLTVL
notes: also called LTG2065
In the case of B8, the EC50 with recombinant human CD19 is less than 0.01 µg/mL.

B9: human anti-CD22 ScFv binder 16P17 (scFv, V domains shown)
VH: QVQLQQSGPGLVKHSQTLSLTCAISGDSVSSNSAAWNWIRQSPSRGLEWLGRTYYRSKWYNDYAVSVKSRITINPDTSKNQFSLQLNSVTPEDTAVYYCAQEVEPHDAFDIWGQGTMVTVSS
VL: DIQMTQSPSSVYASVGDKVTITCRASQDVSGWLAWYQQKPGLAPQLLISGASTLQGEVPSRFSGSGSGTDFTLTISSLQPEDFATYYCQQAKYFPYTFGQGTKLEIK
In the case of B9, the 50% effective concentration (EC50) with recombinant human CD22 was less than 0.01 µg/mL.
